Test results: US20140087995A1 (published 2014)
Numbered stars: 1 amine (or outer) side, 2 acyl side, 3 side chain; on linkers, the order of the positions; unused ones are H or OH. Bridge positions count the residues as written; N and C are the ends. Side chains are listed from the residue outwards. Ends that are not written are not given here. * marks the point of attachment. C20 diacid = O=C(O)CCCCCCCCCCCCCCCCCCC(=O)*; γGlu = O=C(O)[C@H](CCC(=O)[*:2])N[*:1]; AEEA = NCCOCCOCC(=O)O

T1: human calcitonin receptor (human, UniProt P30988 25-474)
T1 construct: whole, on cells; Assayed as cell membranes of BHK tk'ts 13 cells stably transfected with the human calcitonin receptor (Assay VII); also called hCTR; hCT
T1 sequence (looked up): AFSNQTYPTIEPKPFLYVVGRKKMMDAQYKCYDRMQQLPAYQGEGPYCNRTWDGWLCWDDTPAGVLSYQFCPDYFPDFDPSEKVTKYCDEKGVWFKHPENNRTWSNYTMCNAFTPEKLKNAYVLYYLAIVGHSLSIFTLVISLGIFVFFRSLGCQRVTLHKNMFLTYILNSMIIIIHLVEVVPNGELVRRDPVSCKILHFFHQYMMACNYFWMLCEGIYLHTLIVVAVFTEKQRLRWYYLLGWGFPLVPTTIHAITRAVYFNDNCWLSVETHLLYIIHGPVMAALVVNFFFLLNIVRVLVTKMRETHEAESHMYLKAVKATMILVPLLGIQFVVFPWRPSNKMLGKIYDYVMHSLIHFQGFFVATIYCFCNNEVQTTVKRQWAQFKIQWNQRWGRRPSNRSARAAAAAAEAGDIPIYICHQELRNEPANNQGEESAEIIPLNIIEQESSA

B1: N^ε1-[2-[2-[2-[[(4S)-4-carboxy-4-(19-carboxynonadecanoylamino)butanoyl]amino]ethoxy]ethoxy]acetyl]-[Arg17,Pro21,Pro27,Pro34]-h-amylin (peptide)
peptide: K([AEEA-γGlu-C20 diacid])CNTATCATQRLANFLRHSSPNFGAIPSSTNVGPNTY-NH2
modifications: disulfide 2-7; N-terminus assumed
SMILES: CC[C@H](C)[C@H](NC(=O)[C@H](C)NC(=O)CNC(=O)[C@H](Cc1ccccc1)NC(=O)[C@H](CC(N)=O)NC(=O)[C@@H]1CCCN1C(=O)[C@H](CO)NC(=O)[C@H](CO)NC(=O)[C@H](Cc1c[nH]cn1)NC(=O)[C@H](CCCNC(=N)N)NC(=O)[C@H](CC(C)C)NC(=O)[C@H](Cc1ccccc1)NC(=O)[C@H](CC(N)=O)NC(=O)[C@H](C)NC(=O)[C@H](CC(C)C)NC(=O)[C@H](CCCNC(=N)N)NC(=O)[C@H](CCC(N)=O)NC(=O)[C@@H](NC(=O)[C@H](C)NC(=O)[C@@H]1CSSC[C@H](NC(=O)[C@@H](N)CCCCNC(=O)COCCOCCNC(=O)CC[C@H](NC(=O)CCCCCCCCCCCCCCCCCCC(=O)O)C(=O)O)C(=O)N[C@@H](CC(N)=O)C(=O)N[C@@H]([C@@H](C)O)C(=O)N[C@@H](C)C(=O)N[C@@H]([C@@H](C)O)C(=O)N1)[C@@H](C)O)C(=O)N1CCC[C@H]1C(=O)N[C@@H](CO)C(=O)N[C@@H](CO)C(=O)N[C@H](C(=O)N[C@@H](CC(N)=O)C(=O)N[C@H](C(=O)NCC(=O)N1CCC[C@H]1C(=O)N[C@@H](CC(N)=O)C(=O)N[C@H](C(=O)N[C@@H](Cc1ccc(O)cc1)C(N)=O)[C@@H](C)O)C(C)C)[C@@H](C)O
notes: also called compound 50
B2: N^ε1-[2-[2-[2-[[(4S)-4-carboxy-4-(19-carboxynonadecanoylamino)butanoyl]amino]ethoxy]ethoxy]acetyl]-[His14,Arg17,Pro21,Pro27,Pro31]-h-amylin (peptide)
peptide: K([AEEA-γGlu-C20 diacid])CNTATCATQRLAHFLRHSSPNFGAIPSSTPVGSNTY-NH2
modifications: disulfide 2-7; N-terminus assumed
SMILES: CC[C@H](C)[C@H](NC(=O)[C@H](C)NC(=O)CNC(=O)[C@H](Cc1ccccc1)NC(=O)[C@H](CC(N)=O)NC(=O)[C@@H]1CCCN1C(=O)[C@H](CO)NC(=O)[C@H](CO)NC(=O)[C@H](Cc1c[nH]cn1)NC(=O)[C@H](CCCNC(=N)N)NC(=O)[C@H](CC(C)C)NC(=O)[C@H](Cc1ccccc1)NC(=O)[C@H](Cc1c[nH]cn1)NC(=O)[C@H](C)NC(=O)[C@H](CC(C)C)NC(=O)[C@H](CCCNC(=N)N)NC(=O)[C@H](CCC(N)=O)NC(=O)[C@@H](NC(=O)[C@H](C)NC(=O)[C@@H]1CSSC[C@H](NC(=O)[C@@H](N)CCCCNC(=O)COCCOCCNC(=O)CC[C@H](NC(=O)CCCCCCCCCCCCCCCCCCC(=O)O)C(=O)O)C(=O)N[C@@H](CC(N)=O)C(=O)N[C@@H]([C@@H](C)O)C(=O)N[C@@H](C)C(=O)N[C@@H]([C@@H](C)O)C(=O)N1)[C@@H](C)O)C(=O)N1CCC[C@H]1C(=O)N[C@@H](CO)C(=O)N[C@@H](CO)C(=O)N[C@H](C(=O)N1CCC[C@H]1C(=O)N[C@H](C(=O)NCC(=O)N[C@@H](CO)C(=O)N[C@@H](CC(N)=O)C(=O)N[C@H](C(=O)N[C@@H](Cc1ccc(O)cc1)C(N)=O)[C@@H](C)O)C(C)C)[C@@H](C)O
notes: also called compound 61
B3: N^ε1-[2-[2-[2-[[(4S)-4-carboxy-4-(19-carboxynonadecanoylamino)butanoyl]amino]ethoxy]ethoxy]acetyl]-[His14,Arg17,Pro21,Pro27,His34]-h-amylin (peptide)
peptide: K([AEEA-γGlu-C20 diacid])CNTATCATQRLAHFLRHSSPNFGAIPSSTNVGHNTY-NH2
modifications: disulfide 2-7; N-terminus assumed
SMILES: CC[C@H](C)[C@H](NC(=O)[C@H](C)NC(=O)CNC(=O)[C@H](Cc1ccccc1)NC(=O)[C@H](CC(N)=O)NC(=O)[C@@H]1CCCN1C(=O)[C@H](CO)NC(=O)[C@H](CO)NC(=O)[C@H](Cc1c[nH]cn1)NC(=O)[C@H](CCCNC(=N)N)NC(=O)[C@H](CC(C)C)NC(=O)[C@H](Cc1ccccc1)NC(=O)[C@H](Cc1c[nH]cn1)NC(=O)[C@H](C)NC(=O)[C@H](CC(C)C)NC(=O)[C@H](CCCNC(=N)N)NC(=O)[C@H](CCC(N)=O)NC(=O)[C@@H](NC(=O)[C@H](C)NC(=O)[C@@H]1CSSC[C@H](NC(=O)[C@@H](N)CCCCNC(=O)COCCOCCNC(=O)CC[C@H](NC(=O)CCCCCCCCCCCCCCCCCCC(=O)O)C(=O)O)C(=O)N[C@@H](CC(N)=O)C(=O)N[C@@H]([C@@H](C)O)C(=O)N[C@@H](C)C(=O)N[C@@H]([C@@H](C)O)C(=O)N1)[C@@H](C)O)C(=O)N1CCC[C@H]1C(=O)N[C@@H](CO)C(=O)N[C@@H](CO)C(=O)N[C@H](C(=O)N[C@@H](CC(N)=O)C(=O)N[C@H](C(=O)NCC(=O)N[C@@H](Cc1c[nH]cn1)C(=O)N[C@@H](CC(N)=O)C(=O)N[C@H](C(=O)N[C@@H](Cc1ccc(O)cc1)C(N)=O)[C@@H](C)O)C(C)C)[C@@H](C)O
notes: also called compound 80
B4: N^ε1-[2-[2-[2-[[(4S)-4-carboxy-4-(19-carboxynonadecanoylamino)butanoyl]amino]ethoxy]ethoxy]acetyl]-[Gly14,Arg17,Pro21,Pro27,Pro31]-h-amylin (peptide)
peptide: K([AEEA-γGlu-C20 diacid])CNTATCATQRLAGFLRHSSPNFGAIPSSTPVGSNTY-NH2
modifications: disulfide 2-7; N-terminus assumed
SMILES: CC[C@H](C)[C@H](NC(=O)[C@H](C)NC(=O)CNC(=O)[C@H](Cc1ccccc1)NC(=O)[C@H](CC(N)=O)NC(=O)[C@@H]1CCCN1C(=O)[C@H](CO)NC(=O)[C@H](CO)NC(=O)[C@H](Cc1c[nH]cn1)NC(=O)[C@H](CCCNC(=N)N)NC(=O)[C@H](CC(C)C)NC(=O)[C@H](Cc1ccccc1)NC(=O)CNC(=O)[C@H](C)NC(=O)[C@H](CC(C)C)NC(=O)[C@H](CCCNC(=N)N)NC(=O)[C@H](CCC(N)=O)NC(=O)[C@@H](NC(=O)[C@H](C)NC(=O)[C@@H]1CSSC[C@H](NC(=O)[C@@H](N)CCCCNC(=O)COCCOCCNC(=O)CC[C@H](NC(=O)CCCCCCCCCCCCCCCCCCC(=O)O)C(=O)O)C(=O)N[C@@H](CC(N)=O)C(=O)N[C@@H]([C@@H](C)O)C(=O)N[C@@H](C)C(=O)N[C@@H]([C@@H](C)O)C(=O)N1)[C@@H](C)O)C(=O)N1CCC[C@H]1C(=O)N[C@@H](CO)C(=O)N[C@@H](CO)C(=O)N[C@H](C(=O)N1CCC[C@H]1C(=O)N[C@H](C(=O)NCC(=O)N[C@@H](CO)C(=O)N[C@@H](CC(N)=O)C(=O)N[C@H](C(=O)N[C@@H](Cc1ccc(O)cc1)C(N)=O)[C@@H](C)O)C(C)C)[C@@H](C)O
notes: also called compound 71
B5: N^ε1-[2-[2-[2-[[(4S)-4-carboxy-4-(19-carboxynonadecanoylamino)butanoyl]amino]ethoxy]ethoxy]acetyl]-[His14,Arg17,Pro21,Pro27,Arg34]-h-amylin (peptide)
peptide: K([AEEA-γGlu-C20 diacid])CNTATCATQRLAHFLRHSSPNFGAIPSSTNVGRNTY-NH2
modifications: disulfide 2-7; N-terminus assumed
SMILES: CC[C@H](C)[C@H](NC(=O)[C@H](C)NC(=O)CNC(=O)[C@H](Cc1ccccc1)NC(=O)[C@H](CC(N)=O)NC(=O)[C@@H]1CCCN1C(=O)[C@H](CO)NC(=O)[C@H](CO)NC(=O)[C@H](Cc1c[nH]cn1)NC(=O)[C@H](CCCNC(=N)N)NC(=O)[C@H](CC(C)C)NC(=O)[C@H](Cc1ccccc1)NC(=O)[C@H](Cc1c[nH]cn1)NC(=O)[C@H](C)NC(=O)[C@H](CC(C)C)NC(=O)[C@H](CCCNC(=N)N)NC(=O)[C@H](CCC(N)=O)NC(=O)[C@@H](NC(=O)[C@H](C)NC(=O)[C@@H]1CSSC[C@H](NC(=O)[C@@H](N)CCCCNC(=O)COCCOCCNC(=O)CC[C@H](NC(=O)CCCCCCCCCCCCCCCCCCC(=O)O)C(=O)O)C(=O)N[C@@H](CC(N)=O)C(=O)N[C@@H]([C@@H](C)O)C(=O)N[C@@H](C)C(=O)N[C@@H]([C@@H](C)O)C(=O)N1)[C@@H](C)O)C(=O)N1CCC[C@H]1C(=O)N[C@@H](CO)C(=O)N[C@@H](CO)C(=O)N[C@H](C(=O)N[C@@H](CC(N)=O)C(=O)N[C@H](C(=O)NCC(=O)N[C@@H](CCCNC(=N)N)C(=O)N[C@@H](CC(N)=O)C(=O)N[C@H](C(=O)N[C@@H](Cc1ccc(O)cc1)C(N)=O)[C@@H](C)O)C(C)C)[C@@H](C)O
notes: also called compound 84
B6: N^ε1-[2-[2-[2-[[(4S)-4-carboxy-4-(19-carboxynonadecanoylamino)butanoyl]amino]ethoxy]ethoxy]acetyl]-[His14,Arg17,Pro21,Pro27,Pro34]-h-amylin (peptide)
peptide: K([AEEA-γGlu-C20 diacid])CNTATCATQRLAHFLRHSSPNFGAIPSSTNVGPNTY-NH2
modifications: disulfide 2-7; N-terminus assumed
SMILES: CC[C@H](C)[C@H](NC(=O)[C@H](C)NC(=O)CNC(=O)[C@H](Cc1ccccc1)NC(=O)[C@H](CC(N)=O)NC(=O)[C@@H]1CCCN1C(=O)[C@H](CO)NC(=O)[C@H](CO)NC(=O)[C@H](Cc1c[nH]cn1)NC(=O)[C@H](CCCNC(=N)N)NC(=O)[C@H](CC(C)C)NC(=O)[C@H](Cc1ccccc1)NC(=O)[C@H](Cc1c[nH]cn1)NC(=O)[C@H](C)NC(=O)[C@H](CC(C)C)NC(=O)[C@H](CCCNC(=N)N)NC(=O)[C@H](CCC(N)=O)NC(=O)[C@@H](NC(=O)[C@H](C)NC(=O)[C@@H]1CSSC[C@H](NC(=O)[C@@H](N)CCCCNC(=O)COCCOCCNC(=O)CC[C@H](NC(=O)CCCCCCCCCCCCCCCCCCC(=O)O)C(=O)O)C(=O)N[C@@H](CC(N)=O)C(=O)N[C@@H]([C@@H](C)O)C(=O)N[C@@H](C)C(=O)N[C@@H]([C@@H](C)O)C(=O)N1)[C@@H](C)O)C(=O)N1CCC[C@H]1C(=O)N[C@@H](CO)C(=O)N[C@@H](CO)C(=O)N[C@H](C(=O)N[C@@H](CC(N)=O)C(=O)N[C@H](C(=O)NCC(=O)N1CCC[C@H]1C(=O)N[C@@H](CC(N)=O)C(=O)N[C@H](C(=O)N[C@@H](Cc1ccc(O)cc1)C(N)=O)[C@@H](C)O)C(C)C)[C@@H](C)O
notes: also called compound 68

The binders below were run against T1, human calcitonin receptor (assay: IC50 at hCTR divided by IC50 at hAmylin-R (SPA competition assays V and VII)).
How it was run: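 IC₅₀ values were derived by one-site competition analysis of SPA counts. Cell membranes (35 ng/μL) with SPA beads were incubated with test compounds for 120 min at 25° C in Hepes buffer, pH 7.4, containing CaCl2, MgCl₂, OA and Tween20.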

| Ratio hCT/hAmylin binding | Binder |
| --- | --- |
| 36 | B1 |
| 66.7 | B2 |
| 68.1 | B3 |
| 32 | B4 |
| 120 | B5 |
| 64.4 | B6 |

What follows are binders tested against T1, human calcitonin receptor (assay: SPA competition vs 125I-calcitonin, membranes of BHK cells with human calcitonin receptor (Assay VII)).
How it was run: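 BHK hCTR membranes 35 ng/μL + SPA beads 0.05 mg/well; buffer 50 mM Hepes pH 7.4, 1 mM CaCl2, 5 mM MgCl₂, 0.1% OA, 0.02% Tween20. 120 min, 25° C., shaking. Scintillation count; IC50 by one-site binding competition.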

| IC50 [nM] | Binder |
| --- | --- |
| 1.38 | B1 |
| 8.11 | B2 |
| 19.8 | B3 |
| 1.53 | B4 |
| 88.9 | B5 |
| 5.66 | B6 |
